Assay results taken from patent US20240010720A1 (IOMX THERAPEUTICS, published 2024).

T1: IGSF11 ECD fused to murine-Fc (human; mouse, UniProt Q5DX21 23-241)
T1 construct: also called Fc-fusion IGSF11 ECD; full-length ECD of IGSF11; not shown: murine Fc
T1 sequence: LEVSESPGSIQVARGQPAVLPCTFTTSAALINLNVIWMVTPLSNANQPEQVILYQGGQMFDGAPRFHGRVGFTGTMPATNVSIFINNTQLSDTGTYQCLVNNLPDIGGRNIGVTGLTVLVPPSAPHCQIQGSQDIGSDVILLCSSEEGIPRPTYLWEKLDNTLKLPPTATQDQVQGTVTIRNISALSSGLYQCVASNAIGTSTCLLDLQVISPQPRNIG

T2: murine IGSF11 on cells (mouse, UniProt P0C673 23-428)
T2 construct: UniProt P0C673; also called MC38-IGSF11 (murine); CT26-IGSF11 (murine)
T2 sequence: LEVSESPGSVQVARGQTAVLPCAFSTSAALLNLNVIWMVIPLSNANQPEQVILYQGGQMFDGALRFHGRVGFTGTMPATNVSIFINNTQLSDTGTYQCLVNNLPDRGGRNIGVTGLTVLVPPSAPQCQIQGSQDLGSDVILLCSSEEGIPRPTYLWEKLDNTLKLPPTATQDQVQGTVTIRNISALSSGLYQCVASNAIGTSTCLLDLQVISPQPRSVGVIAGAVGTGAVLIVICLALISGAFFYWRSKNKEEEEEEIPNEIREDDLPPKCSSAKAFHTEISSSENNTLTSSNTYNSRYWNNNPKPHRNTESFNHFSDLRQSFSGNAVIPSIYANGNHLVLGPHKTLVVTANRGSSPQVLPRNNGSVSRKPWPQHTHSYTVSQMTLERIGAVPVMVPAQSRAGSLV

T3: human IGSF11 (VSIG3) on cells (human, UniProt Q5DX21 23-431)
T3 sequence: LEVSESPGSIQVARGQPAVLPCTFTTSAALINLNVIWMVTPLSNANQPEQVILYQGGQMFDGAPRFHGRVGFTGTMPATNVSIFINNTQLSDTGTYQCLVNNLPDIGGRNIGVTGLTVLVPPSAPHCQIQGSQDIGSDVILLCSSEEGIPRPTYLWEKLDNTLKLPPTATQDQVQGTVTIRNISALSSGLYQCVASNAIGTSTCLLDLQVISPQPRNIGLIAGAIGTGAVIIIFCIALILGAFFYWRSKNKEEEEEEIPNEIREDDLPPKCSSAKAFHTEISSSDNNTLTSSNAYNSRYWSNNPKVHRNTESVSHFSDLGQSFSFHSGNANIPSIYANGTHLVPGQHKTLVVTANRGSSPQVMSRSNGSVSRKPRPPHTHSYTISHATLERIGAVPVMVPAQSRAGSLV

T4: recombinant human IGSF11 (VSIG3) extracellular domain (ECD) (human, UniProt Q5DX21 23-241, biotinylated where captured on streptavidin)
T4 construct: also called biotinylated recombinant ECD-IGSF11; IGSF11 (ECD domain)
T4 sequence: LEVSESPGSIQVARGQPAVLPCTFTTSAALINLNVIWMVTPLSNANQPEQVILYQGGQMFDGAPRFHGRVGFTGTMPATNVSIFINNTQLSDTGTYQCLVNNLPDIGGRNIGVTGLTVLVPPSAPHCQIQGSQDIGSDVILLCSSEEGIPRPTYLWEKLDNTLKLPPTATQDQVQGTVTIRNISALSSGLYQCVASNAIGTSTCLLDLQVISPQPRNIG

T5: recombinant murine IGSF11 extracellular domain (ECD) (mouse, UniProt P0C673 23-240, biotinylated)
T5 construct: also called Mouse IGSF11; murine ECD-IGSF11
T5 sequence: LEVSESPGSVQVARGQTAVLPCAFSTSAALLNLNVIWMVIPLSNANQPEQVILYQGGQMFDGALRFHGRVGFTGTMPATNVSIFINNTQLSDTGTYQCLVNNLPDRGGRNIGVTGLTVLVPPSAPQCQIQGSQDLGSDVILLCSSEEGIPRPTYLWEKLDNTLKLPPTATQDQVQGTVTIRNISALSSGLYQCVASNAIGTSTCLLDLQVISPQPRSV

T6: recombinant cynomolgus monkey IGSF11 extracellular domain (ECD) (cynomolgus monkey, UniProt Q5DX21 23-241 (human entry), biotinylated)
T6 chain: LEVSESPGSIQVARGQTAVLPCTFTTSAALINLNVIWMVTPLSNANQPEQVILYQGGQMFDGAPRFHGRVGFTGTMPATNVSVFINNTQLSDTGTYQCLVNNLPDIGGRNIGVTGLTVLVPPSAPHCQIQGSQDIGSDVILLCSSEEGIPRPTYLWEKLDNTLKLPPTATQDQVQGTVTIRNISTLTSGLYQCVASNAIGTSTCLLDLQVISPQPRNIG

T7: His-tagged extracellular domain (ECD) of human IGSF11 (VSIG3) (human, UniProt Q5DX21 23-241)
T7 construct: partly bought (SinoBiological 13094-H08H); also called IGSF11-HIS; HIS-IGSF11; not shown: HIS6 tag
T7 sequence: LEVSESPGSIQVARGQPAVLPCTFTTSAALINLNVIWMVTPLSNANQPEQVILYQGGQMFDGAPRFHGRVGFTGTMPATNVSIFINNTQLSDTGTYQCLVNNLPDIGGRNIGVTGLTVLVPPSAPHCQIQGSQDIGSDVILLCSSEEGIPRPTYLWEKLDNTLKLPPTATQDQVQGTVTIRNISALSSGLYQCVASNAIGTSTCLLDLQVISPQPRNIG


Assays:
[1] = molecular target: T1, IGSF11 ECD fused to murine-Fc; experiment: ELISA, IgG
Description: Expi293 cells (ThermoFisher) were transiently transfected with DNA sequences encoding the applicable IGSF11 domain-mFc fusions according to the manufacturer's instructions, and cultured under conditions suitable to the IGSF11 domain fusion. Cell supernatants were harvested 5 days post transfection and the expressed Fc-protein purified via Protein A affinity chromatography (GE Healthcare). IGSF11 domain Fc-fusion proteins were re-buffered into PBS pH7.4. […] The surface was blocked with 2% (w/v) skim milk powder in PBST. After three wash cycles with PBST, a dilution series of IgG-format ABPs was transferred to the immobilized the Fc-fusion IGSF11 ECD or the IGSF11 domains and incubated for 1 h. After removing all unbound antibodies by 3 wash cycles with PBST, bound IgG ABPs were detected with a goat anti-human IgG antibody conjugated with horseradish peroxidase. After three wash cycles with PBST the ELISA was developed with TMB substrate.

murine IGSF11 on cells [2] = molecular target: T2, murine IGSF11 on cells; experiment: FACS, CT26-IGSF11 cells, IgG
Description: (§1) Unbound antibodies were removed by washing the cells three time with FACS buffer. Bound antibodies were detected with a mouse anti-human IgG antibody conjugated with AlexaFluor647.

murine IGSF11 on cells [3] = molecular target: T2, murine IGSF11 on cells; experiment: FACS, MC38-IGSF11 cells, IgG
Description: as §1

[4] = molecular target: T3, human IGSF11 (VSIG3) on cells; experiment: FACS, MDA-MB-231-IGSF11 cells, IgG
Description: as §1

[5] = molecular target: T4, recombinant human IGSF11 (VSIG3) …; experiment: BLI, apparent affinity, IgG captured, IGSF11 ECD 100 nM
Description: Briefly, various APBs were loaded on an optical biosensor via a commercially available Capture System (AHC sensors, ForteBio).

[6] = molecular target: T4, recombinant human IGSF11 (VSIG3) …; experiment: ELISA, Fab
Protocol: (§2) In order to identify IGSF11-specific binding ABPs, monoclonal Fabs expressed from E. coli were generated from the enriched set of anti-IGFS11 antibody-expressing phage. After bacterial lysis, the Fabs were tested for their binding properties and cross-reactivity profile on recombinant ECD-IGSF11 (human, mouse and cynomolgus monkey) by standard ELISA. Briefly, biotinylated recombinant ECD-IGSF11 from human, mouse, or cynomolgus monkey were immobilized at 2 ug/mL on a streptavidin-coated 384-well Maxisorp plate. The surface was blocked with 2% (w/v) skim milk powder in PBST. After three wash cycles with PBST, a bacterial lysate of each of the anti-IGSF11 Fabs in 2% (w/v) skim milk powder was applied to the immobilized IGSF11 and incubated for 1 h. After removing all unbound Fab by 3 wash cycles with PBST, bound Fab antibodies were detected with a goat anti-human Fab antibody conjugated with horseradish peroxidase. After three wash cycles with PBST the ELISA was developed with TMB substrate.

[7] = molecular target: T5, recombinant murine IGSF11 extracellular …; experiment: ELISA, Fab
Protocol: as §2

[8] = molecular target: T6, recombinant cynomolgus monkey IGSF11 …; experiment: ELISA, Fab
Protocol: as §2

Streptavidin = molecular target: T8, Streptavidin (UniProt P22629 37-163, limits assumed); experiment: ELISA, Fab
T8 construct: also called negative antigen; irrelevant antigen
T8 sequence (P22629 37-163 limits assumed): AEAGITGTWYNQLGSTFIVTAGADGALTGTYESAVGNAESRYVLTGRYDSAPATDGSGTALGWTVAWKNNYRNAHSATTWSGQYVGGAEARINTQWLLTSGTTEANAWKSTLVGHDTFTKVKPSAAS
Protocol: as §2

[9] = molecular target: T7, His-tagged extracellular domain (ECD) …; experiment: blocking ELISA: antibody pre-incubated with His-tagged IGSF11 ECD, complexes added to immobilised VSIR-Fc; y axis % remaining IGSF11 binding to VSIR, x axis nM IgG per legend

| Binder | EC50 [1] | EC50 (murine IGSF11 on cells [2]) | EC50 (murine IGSF11 on cells [3]) | EC50 [4] | Kd [5] | A450 [6] | A450 [7] | A450 [8] | A450 (Streptavidin) | IC50 (read off the curve) [9] |
| --- | --- | --- | --- | --- | --- | --- | --- | --- | --- | --- |
| C-005 (IgG1 format) (antibody, V domains shown, wildtype human IgG1 and kappa or lambda constant regions) VH: not shown VL: SYELTQPPSVSVSPGQTASITCSGDKLGDKYASWYQQKPGQSPVLVIYQDSKRPSGIPERFSGSNSGNTATLTISGTQAEDEADYYCHSYTGKPSQVVFGGGTKLTVL | < 1 nM | < 20 nM | < 20 nM | < 10 nM | < 15 nM | – | – | – | – | – |
| C-018 (Fab format) (Fab, V domains shown, Fab in E. coli lysate) VH: not shown VL: SYELTQPPSVSVSPGQTASITCSGDKLGDKYASWYQQKPGQSPVLVIYQDSKRPSGIPERFSGSNSGNTATLTISGTQAEDEADYYCQAWSTSTHSWVFGGGTKLTVL | – | – | – | – | – | < 1 | < 1 | < 1 | < 0.1 | – |
| B-008 (chain-swapped IgG1) (antibody, V domains shown, human IgG1 format; also called B8) VH: EVQLVESGGGLIQPGGSLRLSCAASGFTVSSNYMSWVRQAPGKGLEWVSVIYSGGSTYYADSVKGRFTISRDNSKNTLYLQMNSLRAEDTAVYYCARGNPYYYGDLQVNFDYWGQGTLVTVSS VL: QAVVTQEPSLTVSPGGTVTPTCGSSTGAVTSGNLPNWFQQKPGQAPRALIYSTSNKHSWTPARISGSLLGGKAALTLSGVQPEDEAEYYCLLYYGGAWVFGGGTKLTVL | – | – | – | – | – | – | – | – | – | ~4 nM |
| C-007 (IgG1 format) (antibody, V domains shown, wildtype human IgG1 and kappa or lambda constant regions) VH: not shown VL: ASVLTQPPSVSAAPGQKVTISCSGSSSNIGNNYVSWYQQLPGTAPKLLIYDNNKRPSGIPDRFSGSKSGTSATLGITGLQAEDEADYYCQLYEEEHSTWVFGGGTKLTVL | < 1 nM | 20 to 50 nM | < 20 nM | < 10 nM | < 125 nM | – | – | – | – | – |
| C-004 (Fab format) (Fab, V domains shown, Fab in E. coli lysate) VH: not shown VL: ASVLTQPPSVSAAPGQKVTISCSGSSSNIGNNYVSWYQQLPGTAPKLLIYDNNKRPSGIPDRFSGSKSGTSATLGITGLQAEDEADYYCLTWTGAGRIFVFGGGTKLTVL | – | – | – | – | – | < 1 | < 1 | < 1 | < 0.1 | – |
| C-001 (IgG1 format) (antibody, V domains shown, wildtype human IgG1 and kappa or lambda constant regions; also called ABP C-001) VH: not shown VL: ASVLTQPPSVSAAPGQKVTISCSGSSSNIGNNYVSWYQQLPGTAPKLLIYDNNKRPSGIPDRFSGSKSGTSATLGITGLQAEDEADYYCGSWLEERSQYVFGGGTKLTVL | < 1 nM | 20 to 50 nM | 50 to 100 nM | < 10 nM | < 75 nM | – | – | – | – | – |
| C-019 (Fab format) (Fab, V domains shown, Fab in E. coli lysate) VH: not shown VL: DIQMTQSPSSLSASVGDRVTITCRASQSISSYLNWYQQKPGKAPKLLIYAASSLQSGVPSRFSGSGSGTDFTLTISSLQPEDFATYYCQQWQHEPPYTFGQGTKVEIK | – | – | – | – | – | < 1 | < 1 | < 1 | < 0.1 | – |
